The source of these data is US20200347130A1 (JIANGSU HENGRUI MEDICINE, published 2020).

Positions count from the first letter of the chain named.

Usually EC50 stands for the concentration giving half of the maximal effect. The term IC50 denotes the concentration that inhibits the measured activity by half.

Sequences and labels used below:
T1: Monkey CD96-3xFlag (cyno-CD96-3xFLAG) (cynomolgus monkey)
T1 construct: Signal peptide marked only by lost underlining; also called cynomolgus CD96
T1 chain: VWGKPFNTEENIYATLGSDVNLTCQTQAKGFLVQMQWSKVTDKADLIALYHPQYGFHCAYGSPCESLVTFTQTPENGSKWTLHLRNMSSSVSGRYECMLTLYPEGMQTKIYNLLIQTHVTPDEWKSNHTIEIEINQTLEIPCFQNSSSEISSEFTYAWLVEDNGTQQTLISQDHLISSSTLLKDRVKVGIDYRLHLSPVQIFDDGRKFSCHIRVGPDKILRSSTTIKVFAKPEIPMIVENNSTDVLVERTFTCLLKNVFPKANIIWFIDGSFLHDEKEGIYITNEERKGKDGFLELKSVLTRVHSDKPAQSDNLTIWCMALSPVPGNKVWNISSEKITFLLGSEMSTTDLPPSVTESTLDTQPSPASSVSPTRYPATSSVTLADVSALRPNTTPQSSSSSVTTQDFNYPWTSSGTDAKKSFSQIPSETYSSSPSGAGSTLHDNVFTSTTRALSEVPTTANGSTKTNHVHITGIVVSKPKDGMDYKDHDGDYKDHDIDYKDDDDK

T2: CD96 extracellular region with His tag (CD96-His) (human, UniProt P40200 22-519)
T2 construct: also called CD96-ECD-His; Bio-CD96-His (biotin-labelled form)
T2 sequence: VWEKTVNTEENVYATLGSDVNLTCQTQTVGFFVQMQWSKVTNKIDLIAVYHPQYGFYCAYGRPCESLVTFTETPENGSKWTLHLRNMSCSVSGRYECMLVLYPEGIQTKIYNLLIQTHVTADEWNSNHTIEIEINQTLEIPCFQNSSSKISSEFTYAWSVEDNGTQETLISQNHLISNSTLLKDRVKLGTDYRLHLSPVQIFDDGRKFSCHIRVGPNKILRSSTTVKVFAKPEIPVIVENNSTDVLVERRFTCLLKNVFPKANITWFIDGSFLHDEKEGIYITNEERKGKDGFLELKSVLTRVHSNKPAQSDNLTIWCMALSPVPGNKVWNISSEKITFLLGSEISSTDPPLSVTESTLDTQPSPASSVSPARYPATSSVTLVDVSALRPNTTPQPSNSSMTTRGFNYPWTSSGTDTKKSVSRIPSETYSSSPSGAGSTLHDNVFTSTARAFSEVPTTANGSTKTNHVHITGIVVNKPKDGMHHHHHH

B1: h1722-010 (antibody, V domains shown)
VH: EVQLVQSGAEVKKPGSSVKVSCKASGGTFSDYWMHWVRQAPGQGLEWIGMLHPNSGTTSFNEKFKIRVTITADKSTSTAYMELSSLRSEDTAVYYCASDYSGPFAYWGQGTLVTVSS
VL: DIQLTQSPSSLSASVGDRVTITCSASSSVNYIHWYQQKPGKAPKRWIFDTSKLASGVPSRFSGSGSGTDYTLTISSLQPEDFATYYCQQWRSNPLTFGQGTKLEIK
notes: Only variable regions are tied to this name; also called M722-010
B2: h1722-017 (antibody, V domains shown)
VH: B1 VH with N54K
VL: B1 VL
B3: h1722-018 (antibody, V domains shown)
VH: B1 VH with N54Q
VL: B1 VL
B4: ch1720 (antibody, human IgG4 S228P, kappa, V domains shown)
VH: EFQLQQSGPELVKPGASVKISCKASAYSLTDYNMNWVKQSNGKSLEWIGVINPSYGISSYNQKFKGKATLTVDQSSSTAYMHLNSLTSEDSAVYYCARQLRLPGYFDVWGTGTTVTVSS
VL: DIKMTQSPSSKNASLGERVTITCKASQDINSYLNWFQQKPGKSPKTLIYRASRLVDGVPSRFSGSGSGQDYSLTISSLEYEDMGIYYCLKYDEFPYTFGGGTKLEIKR
notes: also called chimeric antibody corresponding to m1720
B5: ch1718 (antibody, human IgG4 S228P, kappa, V domains shown)
VH: B4 VH with L29I, S58T, S59D, K63N, G66D, H82Q, R98I, T116I
VL: B4 VL with K11M, N12Y, S31N, S52N, L104V
notes: also called chimeric antibody corresponding to m1718
B6: h1721-003 (antibody, V domains shown)
VH: EVTLKESGPVLVKPTETLTLTCTVSGFSLSSYGVNWIRQPPGKALEWLGVIWGDGSTNYHSALISRLTISKDTSKSQVVLTLTNMDPVDTATYYCAKNYFYGSRYGYAMDSWGQGTTVTVSS
VL: DIQMTQSPSSLSASVGDRVTITCRASENIYSSLAWYQQKPGKAPKLLIYNAKTLIEGVPSRFSGSGSGTDFTLTISSLQPEDFATYYCQHHYGTPYTFGGGTKVEIK
notes: Only variable regions are tied to this name; also called M721-003
B7: h1719-014 (antibody, V domains shown)
VH: B6 VH with N35S, I37V, A44G, S56N, A62V, F100Y, A108P, M109L, S111Y
VL: DIQMTQSPSSVSASVGDRVTITCKATQDVGTAVAWYQQKPGKSPKLLIYWASTRHTGVPERFSGSGSGTDFTLTISSLQPEDFATYFCQQYGSSVLTFGGGTKVEIK
notes: Only variable regions are tied to this name; also called M719-014
B8: h1718-012 (antibody, V domains shown)
VH: EVQLVQSGAEVKKPGASVKVSCKASGYTITDYNMNWVRQAPGQRLEWIGVINPSYGITDYNQNFKDRVTITVDTSASTAYMELSSLRSEDTAVYYCAIQLRLPGYFDVWGQGTTVTVSS
VL: DIQMTQSPSSLSASVGDRVTITCKASQDINQYLNWFQQKPGKAPKTLIYRANRLVDGVPSRFSGSGSGQDYTLTISSLQPEDFATYYCLKYDEFPYTFGGGTKVEIK
notes: Only variable regions are tied to this name
B9: ch1719 (antibody, human IgG4 S228P, kappa, V domains shown)
VH: QVQLKESGPGLVAPSQSLSITCTVSGFSLISYGVSWVRQPPGKGLEWLGVIWGDGNTNYHSVLISRLSIRKDDSKSQVFLKLNSLQTDDTATYYCAKNNYYGSRYGYPMDYWGQGTSVTVSS
VL: DIVMTQSHKFMSTSVGDRVSITCKATQDVGTAVAWYQQKPGHSPKLLIYWASTRHTGVPERFTGSGSGTDFTLTIDNVQSEDLADYFCQQYGSSVLTFGAGTKVELRR
notes: also called chimeric antibody corresponding to m1719
B10: ch1721 (antibody, human IgG4 S228P, kappa, V domains shown)
VH: B9 VH with S35N, N56S, V62A, R70S, K81N, N99Y, Y100F, P108A, Y111S, T116I
VL: DIQMTQSPASLSAAVGETVTITCRASENIYSSLAWYQQKQGKSPQLLVYNAKTLIETVASRFSGSGSGTQYSLKINSLQPEDFGSFYCQHHYGTPYTFGGGTKLEIKR
notes: also called chimeric antibody corresponding to m1721
B11: ch1722 (antibody, human IgG4 S228P, kappa, V domains shown)
VH: QVQLQQPGAELVKPGTSVKLSCKASGNTFIDYWMHWVKQRPGQGLEWIGMLHPNSGTTSFNEKFKIKTTLTIDKSSSTAYMQLSSLTSEDSAIYYCASDYSGPFAYWGQGTLVTVSA
VL: QIVLTQSPGIMSAFPGEKVTMTCSASSSVNYIHWYQQKSGTSPKRWIFDTSKLASGVPARFSGSGSGTSYSLTISSMEAEDAATYYCQQWRSNPLTFGAGTKLELKR
notes: also called chi722; chimeric antibody corresponding to m1722
B12: h1722-006 (antibody, V domains shown)
VH: B1 VH
VL: B1 VL with L4M, F48Y, Y70F
notes: as for B8
B13: h1719-006 (antibody, V domains shown)
VH: B6 VH with N35S, I37V, A44G, S56N, A62V, Y99N, F100Y, A108P, S111Y
VL: B7 VL
notes: also called M719-006

The target of one assay is T1, Monkey CD96-3xFlag (cyno-CD96-3xFLAG). Briefly: ELISA, cyno-CD96-3xFLAG coated. As for the experimental part:
The cross-reactive binding capacity of the anti-CD96 antibody to monkey CD96 was tested by ELISA to determine the binding of the antibody to cynomolgus CD96 protein. The 3×FLAG-tagged CD96 fusion protein was used to coat the microtiter plate, and the intensity of the signal after adding with the antibody was used for evaluating the binding activity of the antibody and cynomolgus CD96. The specific experimental method is as follows:
cyno-CD96-3×FLAG with the amino acid sequence of SEQ ID NO: 95 prepared in Embodiment 4 was diluted to a concentration of 2 μg/ml with PBS buffer (Shanghai Yuanpei Biotechnology Co., Ltd. Cat No. B320), pH 7.4, added to a 96-well microtiter plate (Corning, Cat No. CLS3590-100EA) at a volume of 50 μl/well, and placed in an incubator at 37° C. for 2 hours. After discarding the liquid, 250 μl/well of 5% skim milk (BD, 232100) blocking solution diluted with PBS was added, and the plate was incubated in an incubator at 37° C. for 2.5 hours or at 4° C. overnight (16-18 hours) for blocking. After blocking, the blocking solution was discarded, and the plate was washed 4 times with PBST buffer (pH 7.4 PBS containing 0.05% tween-20). 50 μl/well of different concentrations of the antibodies to be tested (hybridoma purification antibody or humanized antibody) diluted with sample dilution was added, and the plate was incubated in an incubator at 37° C. for 1 hour. […] After washing the plate 4 times with PBST, 50 μl/well of TMB chromogenic substrate (KPL, Cat No. 52-00-03) was added, and the plate was incubated at room temperature for 5-15 minutes, followed by adding 50 μl/well of 1M H₂SO₄ to stop the reaction. The absorption value was read at 450 nm with a NOVOStar microplate reader, and the EC50 value of the binding of CD96 antibody to monkey CD96 was calculated (see Table 14).
On the technique in general: ELISA stands for enzyme-linked immunosorbent assay.
Regarding B1, the EC50 came to 47 pM.

As for B2, it took 47 pM to reach a half-maximal effect (EC50).

On to B3, for which the EC50 amounted to 51 pM.

The molecule B4 gave an EC50 of 96 pM.

In the case of B5, the EC50 worked out at 68 pM.

On to B6, for which a half-maximal response (EC50) required 37 pM.

Molecule B7 yielded an EC50 of 65 pM.

B8 yielded an EC50 of 75 pM.

B9 had an EC50 of 47 pM.

B10: the EC50 came out at 46 pM.

B11 yielded an EC50 of 50 pM.

The next assay has as its target T2, CD96 extracellular region with His tag …. Nature of the assay: blocking cell ELISA: antibody premixed with Bio-CD96-His (0.5 ug/mL), binding to fixed CD155-CHO cells. As for the experimental part:
CD155-CHO cells (constructed by Shanghai Hengrui) were seeded in 96-well culture plates at a density of 9×10⁴/100 μL/well and cultured overnight. After aspirating the supernatant, the plate was washed once with PBS, 100 μl/well of immunostaining fixation solution (Biyuntian, Cat No. P0098) was added and fixed for one hour at room temperature, and the plate was washed three times with PBS. After discarding the liquid, 250 μl/well of 5% skim milk (BD, Cat No. 232100) blocking solution diluted with PBS was added, and the plate was blocked in an incubator at 37° C. for 2.5 hours. After blocking, the blocking solution was discarded, subsequently, the plate was washed 4 times with PBST buffer (pH 7.4 PBS containing 0.05% tween-20). 50 μl/well of antigen-antibody pre-incubation solution (gradient concentrations of the hybridoma antibody to be tested and CD96-Fc at a final concentration of 0.5 μg/mL were premixed at 37° C. for 30 minutes, or gradient concentrations of humanized antibody samples and Bio-CD96-His at a final concentration of 0.5 μg/mL were premixed at 37° C. for 30 minutes) (Biotin-labeled kit, Dongren Chemical, Cat No. LK03) was added, and the plate was incubated in an incubator at 37° C. for 2 hours. After incubation, the reaction solution in the microtiter plate was discarded, the plate was washed 4 times with PBST, and 50 μl/well of HRP-labeled goat anti-human secondary antibody (Jackson Immuno Research, Cat No. 109-035-003) diluted with sample dilution or HRP-labeled streptavidin diluted with sample dilution (Sigma, Cat No. 52438) was added, followed by incubating at 37° C. for 1 hour. After washing the plate 4 times with PBST, 50 μl/well of TMB chromogenic substrate (KPL, Cat No. 52-00-03) was added, the plate was incubated at room temperature for 10-20 minutes, followed by adding 50 μl/well of 1M H₂SO₄ to stop the reaction. The absorption value was read at 450 nm with a NOVOStar microplate reader, and the EC50 value of the effect of CD96 antibody on blocking the binding between the antigens and CD155-CHO cells was calculated (see FIG. 2 and Table 16).
In the case of B1, the IC50 worked out at 207 pM.

B12 showed an IC50 of 398 pM.

The molecule B2 came in with an IC50 of 135 pM.

On to B3, for which the IC50 turned out to be 134 pM.

Regarding B6, the IC50 is 155 pM.

As to B7, the IC50 was found to be 46 pM.

B13 came in with an IC50 of 64 pM.

B8 displayed an IC50 of 133 pM.
